Patent US11634497B2, “Anti-CCR7 antibody drug conjugates” (NOVARTIS AG, priority 2017, dated 2023)

What was measured:
Type in all cases: cell-based
[1] = system: CCR7 and CD20 expressing JVM2 cells; assay: surrogate ADCC reporter assay; conditions: JVM2 target cells and Jurkat-V158 effector cells
Experimental: Capacity of candidate antibodies to mediate ADCC was assessed using a surrogate ADCC reporter assay. CCR7 and CD20 expressing JVM2 cells were used as target cells. JVM2 cells were washed and re-suspended at 8×10^4 cells/ml cells/ml. Effector cells in this assay were a Jurkat cell line stably expressing CD16V158 and an NFAT dependent luciferase reporter (Jurkat-V158); expression of luciferase is a surrogate for canonical ADCC signaling through CD16. Briefly, Jurkat-V158 cells grown in suspension were spun down to remove spent media, the pellet was resuspended in assay media and adjusted to 1.6x10^6 cells/ml cells/mL. Mix equal volumes of effector and target cells to make a master mix of cells yielding a target to effector cell ratio of 1:5 or 1:20. A titration of antibody was diluted in assay media with a final top concentration of 50 ug/mL in the assay well. 12.5 uL of Ab solution was added to a 384 well round bottom plate and then 12.5 ul of the master cell mix was added. Antibody and cells were mixed well by pipetting and incubated for 4 hours at 37° C. in 5% CO2. Following incubation, 15 uL of Bright Glo substrate (Promega #G7572) was added to each well and shaken for 5 min at RT at 1050 rpm. Luminescent signal was read on the Envision plate reader (Perkin Elmer).

[2] = molecular target: T1, hCCR7 (CHO-flpin-hCCR7 cells) (Homo sapiens, UniProt P32248); assay: β-Arrestin assay (PathHunter), antagonistic mode; conditions: parental anti-CCR7 antibodies; hCCL19 as ligand; FIGS. 4B, 4C
T1 construct: host or cells: CHO (CHO-flpin), doxycycline-induced
T1 sequence (P32248 25-378): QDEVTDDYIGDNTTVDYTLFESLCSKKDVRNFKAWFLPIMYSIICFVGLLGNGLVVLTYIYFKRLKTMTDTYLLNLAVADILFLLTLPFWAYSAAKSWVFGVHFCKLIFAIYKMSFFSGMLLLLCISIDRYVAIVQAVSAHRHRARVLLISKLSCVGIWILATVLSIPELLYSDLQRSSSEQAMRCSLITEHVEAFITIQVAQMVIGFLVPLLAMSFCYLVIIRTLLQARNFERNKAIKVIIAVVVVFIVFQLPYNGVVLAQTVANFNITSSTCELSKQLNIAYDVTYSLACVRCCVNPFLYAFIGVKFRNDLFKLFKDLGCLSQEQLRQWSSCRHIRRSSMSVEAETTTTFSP
Experimental: To determine functionality of the anti-CCR7 antibodies, the β-Arrestin assay was performed using the PathHunter Flash Detection Kit from DiscoverX (#93-0247) either in agonistic mode for assessment of agonistic function or antagonistic mode for assessment of antagonistic function.
In the antagonistic mode, CHO-flpin-hCCR7 cells were seeded as described above. The next day, a 6× working solution (0.5 μM×6=3.0 μM) in 1× assay buffer was made for each test antibody or positive control MAB197 (R&D reference antibody; ligand antagonist) or negative control hIgG. 5 μl of the 6× working solution of antibodies or controls were added to each well, briefly spun down, and incubated at 37° C./5% CO2 for 30 min. During incubation, serial dilutions of a 6× working solution in 1× assay buffer were made for hCCL19. Following incubation, 5 μl of the 6× working solution of hCCL19 were added to each well, briefly spun down, and incubated at 37° C./5% CO2 for 90 min. Following incubation, 25 μl of detection reagent were added to each well, incubated at room temperature in the dark while shaking for 20 min. Then, the luminescence signal for enzyme activity was measured on the Envision machine and analyzed in Excel.

[3] = system: DEL; assay: ADC cell viability assay (CellTiter-Glo, four days); conditions: DEL (ALCL); CCR7 receptor levels ~100,000; Table 19
Experimental: (§1) Cytotoxic effects after binding of directly conjugated antibodies (ADCs) with various payloads and their internalization into CCR7(+) cells were studied by assessing cell viability after four days of treatment. Three fold dilutions of the ADCs were added to 384-well bottom white plates in triplicates ([…]). […] Cells were harvested (adherent cells were detached with Accutase) and resuspended to approximately 2×10^4cells/ml. Cells were added to 384-well plates on top of the antibody (20 μl/well). The plates were incubated for four days at 37° C. and 5% CO2. Subsequently, 20 μl/well of CellTiter-Glo solution (CellTiter-Glo® Luminescent Cell Viability Assay; Promega, #G7571) was prepared and added to the cells. Cell viability was determined by the luminescence signal, which was measured after 10 min of incubation at 22° C. and 400 rpm with the Envision reader. IC50 values were calculated using the Graphpad Prism software.

[4] = system: KE97; assay: as above; conditions: KE97 (Multiple Myeloma); CCR7 receptor levels ~100,000; Table 19
Experimental: as §1

[5] = system: CML-T1; assay: as above; conditions: CML-T1 (T cell leukemia); CCR7 receptor levels ~29,000
Experimental: as §1
(§2) To assess the ADCs for target-specificity and receptor-level dependency, ADC activity was tested across cell lines with different CCR7 receptor levels. […] Cell lines were chosen based on similar sensitivity to payload.

[6] = system: DND-41; assay: as above; conditions: DND-41 (T cell leukemia); CCR7 receptor levels 1,700
Experimental: as §1, §2

[7] = system: SR786; assay: as above; conditions: SR786 (Anaplastic large T cell lymphoma); CCR7 receptor levels ~28,000
Experimental: as §1, §2

B1: 121G12 humanized CysMab: humanized anti-CCR7 IgG1 antibody with cysteine mutations, wild type Fc (antibody, V domains shown)
VH: EVQLVESGGGLVKPGGSLRLSCAASGFTFSTYAMSWVRQAPGKGLEWVATISDAGSYSYYPDNVKGRFTISRDNAKNSLYLQMNSLRAEDTAVYYCARRGSRYEEYYVMDYWGQGTTVTVSS
VL: EIVLTQSPATLSVSPGERVTLSCRASQSISNNLHWYQQKPGQAPRLLIKYASQSISGIPARFSGSGSGTDFTLTISSVEPEDFGVYFCQQSSSWLTFGQGTKLEIK
ADCC activity; IC50 (nM) [1]: Yes, but insufficient curve fitting

B2: 674J13 Parental: parental anti-CCR7 antibody derived from the hybridoma (antibody, V domains shown)
VH: DVQLQESGPDLVKPSQSLSLTCTVTGYSITSGYSWHWIRQFPGNKLEWMAHIHSSGSTNYNPSLKSRISIIRDTSKNLFFLQLNSVTTEDTATYYCARGGVQAFAYWGQGTLVTVSA
VL: QIVLTQSPAIMSASPGEKVTMTCSASSSVIYMHWYQQKSGTSPKRWIYDTSKLASGVPARFSGSGSGTSYSLTISSMEAEDAATYYCQQWSSNPLTFGAGTTLELK
functionality in β-Arrestin assay, antagonistic format [2]: neutral, non-ligand blocking antibody

B3: 674J13.CysMab.DAPA.AURIX2 (conjugate)
heavy: DVQLQESGPGLVKPSQTLSLTCTVSGYSITSGYSWHWIRQHPGKGLEWMAHIHSSGSTNYNPSLKSRITISRDTSKNQFSLKLSSVTAADTAVYYCARGGVQAFAYWGQGTLVTVSSASTKGPSVFPLAPSSKSTSGGTAALGCLVKDYFPCPVTVSWNSGALTSGVHTFPAVLQSSGLYSLSSVVTVPSSSLGTQTYICNVNHKPSNTKVDKRVEPKSCDKTHTCPPCPAPELLGGPSVFLFPPKPKDTLMISRTPEVTCVVVAVSHEDPEVKFNWYVDGVEVHNAKTKPREEQYNSTYRVVSVLTVLHQDWLNGKEYKCKVSNKALAAPIEKTISKAKGQPREPQVYTLPPSREEMTKNQVSLTCLVKGFYPCDIAVEWESNGQPENNYKTTPPVLDSDGSFFLYSKLTVDKSRWQQGNVFSCSVMHEALHNHYTQKSLSLSPGK
light: EIVLTQSPATLSASPGERVTMSCSASSSVIYMHWYQQKPGQAPRRWIYDTSKLASGVPARFSGSGSGTDYTLTISSMEPEDAAVYYCQQWSSNPLTFGQGTKLEIKRTVAAPSVFIFPPSDEQLKSGTASVVCLLNNFYPREAKVQWKVDNALQSGNSQESVTEQDSKDSTYSLSSTLTLSKADYEKHKVYACEVTHQGLSSPVTKSFNRGEC
AMAX [3]: (>95% AMAX)
AMAX [4]: (>95% AMAX)
AMAX [5]: (60% AMAX)
AMAX [6]: <20% AMAX
AMAX [7]: (90% AMAX)
